Laboratory results as given in patent US20250163182A1 (Janssen / Centocor, published 2025).

Columns and labels:
[1] = biological target: T1, ENPP1 on CHOK1 cells (UniProt P22413 1-925, limits assumed); assay: flow cytometry on CHO cells overexpressing ENPP1
T1 construct: whole, on cells; also called ectonucleotide pyrophosphatase/phosphodiesterase family member 1; CHO ENPP1 OE
T1 sequence (looked up): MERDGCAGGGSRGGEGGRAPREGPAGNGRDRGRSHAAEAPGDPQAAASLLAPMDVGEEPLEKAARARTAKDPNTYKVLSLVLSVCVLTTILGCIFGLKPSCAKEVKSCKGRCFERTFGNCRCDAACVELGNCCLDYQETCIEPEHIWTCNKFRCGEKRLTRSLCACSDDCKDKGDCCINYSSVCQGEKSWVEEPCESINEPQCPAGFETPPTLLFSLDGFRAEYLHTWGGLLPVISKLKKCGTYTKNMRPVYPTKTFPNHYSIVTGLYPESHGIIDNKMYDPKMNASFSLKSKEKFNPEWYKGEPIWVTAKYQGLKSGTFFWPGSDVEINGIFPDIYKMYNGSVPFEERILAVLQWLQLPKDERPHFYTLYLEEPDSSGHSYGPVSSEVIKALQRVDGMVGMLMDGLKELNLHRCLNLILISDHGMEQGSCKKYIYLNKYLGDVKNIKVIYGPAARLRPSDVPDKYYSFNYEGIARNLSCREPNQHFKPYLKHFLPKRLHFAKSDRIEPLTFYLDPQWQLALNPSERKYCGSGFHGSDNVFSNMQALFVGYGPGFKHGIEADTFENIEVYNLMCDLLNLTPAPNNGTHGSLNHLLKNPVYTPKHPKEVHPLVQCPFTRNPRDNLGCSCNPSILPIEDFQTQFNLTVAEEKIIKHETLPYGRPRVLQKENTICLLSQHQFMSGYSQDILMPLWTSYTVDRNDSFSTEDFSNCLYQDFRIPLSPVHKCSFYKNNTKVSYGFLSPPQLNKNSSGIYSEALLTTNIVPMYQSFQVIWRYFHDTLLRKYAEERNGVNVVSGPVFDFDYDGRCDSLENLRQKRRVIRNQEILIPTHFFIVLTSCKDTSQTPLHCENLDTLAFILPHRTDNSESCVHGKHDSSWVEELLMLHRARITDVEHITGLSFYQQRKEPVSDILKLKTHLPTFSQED

[2] = biological target: T2, human CD3 on T cells (human, UniProt P07766 23-207); assay: flow cytometry on human T cells, average of 6 donors
T2 construct: on T cells it stands in the TCR-CD3 complex; also called human T cells; T cells isolated from healthy human donors

[3] = biological target: T3, cynomolgus monkey ENPP3 on HepG2-KO cyENPP3 OE cells (cynomolgus monkey, UniProt A0A2K5TKP4 1-874); assay: cell-based or functional assay
T3 sequence: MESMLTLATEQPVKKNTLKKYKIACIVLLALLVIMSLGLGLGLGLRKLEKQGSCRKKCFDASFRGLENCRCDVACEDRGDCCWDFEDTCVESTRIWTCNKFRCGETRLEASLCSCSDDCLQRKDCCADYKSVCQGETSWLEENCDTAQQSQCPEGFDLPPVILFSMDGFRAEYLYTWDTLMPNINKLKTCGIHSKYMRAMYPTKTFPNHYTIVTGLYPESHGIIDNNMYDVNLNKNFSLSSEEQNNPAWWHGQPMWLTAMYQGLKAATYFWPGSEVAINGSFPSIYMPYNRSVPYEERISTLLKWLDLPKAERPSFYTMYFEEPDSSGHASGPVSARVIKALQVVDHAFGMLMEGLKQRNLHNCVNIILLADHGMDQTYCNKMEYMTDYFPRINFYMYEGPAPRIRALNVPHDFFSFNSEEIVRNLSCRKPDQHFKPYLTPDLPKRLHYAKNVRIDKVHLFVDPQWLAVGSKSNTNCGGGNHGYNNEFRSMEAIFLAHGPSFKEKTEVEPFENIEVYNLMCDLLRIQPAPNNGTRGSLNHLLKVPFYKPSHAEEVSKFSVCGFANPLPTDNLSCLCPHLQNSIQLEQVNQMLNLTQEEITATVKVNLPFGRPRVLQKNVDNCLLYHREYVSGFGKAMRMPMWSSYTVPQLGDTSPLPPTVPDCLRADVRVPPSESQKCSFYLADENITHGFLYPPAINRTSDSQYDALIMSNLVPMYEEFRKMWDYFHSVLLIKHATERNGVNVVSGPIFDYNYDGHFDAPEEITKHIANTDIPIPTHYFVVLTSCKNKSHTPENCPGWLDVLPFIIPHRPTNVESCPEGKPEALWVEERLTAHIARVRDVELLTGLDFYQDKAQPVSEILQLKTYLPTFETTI

[4] = biological target: T4, human ENPP3 on cells (human, UniProt O14638 1-875); assay: cell-based or functional assay
T4 sequence (looked up): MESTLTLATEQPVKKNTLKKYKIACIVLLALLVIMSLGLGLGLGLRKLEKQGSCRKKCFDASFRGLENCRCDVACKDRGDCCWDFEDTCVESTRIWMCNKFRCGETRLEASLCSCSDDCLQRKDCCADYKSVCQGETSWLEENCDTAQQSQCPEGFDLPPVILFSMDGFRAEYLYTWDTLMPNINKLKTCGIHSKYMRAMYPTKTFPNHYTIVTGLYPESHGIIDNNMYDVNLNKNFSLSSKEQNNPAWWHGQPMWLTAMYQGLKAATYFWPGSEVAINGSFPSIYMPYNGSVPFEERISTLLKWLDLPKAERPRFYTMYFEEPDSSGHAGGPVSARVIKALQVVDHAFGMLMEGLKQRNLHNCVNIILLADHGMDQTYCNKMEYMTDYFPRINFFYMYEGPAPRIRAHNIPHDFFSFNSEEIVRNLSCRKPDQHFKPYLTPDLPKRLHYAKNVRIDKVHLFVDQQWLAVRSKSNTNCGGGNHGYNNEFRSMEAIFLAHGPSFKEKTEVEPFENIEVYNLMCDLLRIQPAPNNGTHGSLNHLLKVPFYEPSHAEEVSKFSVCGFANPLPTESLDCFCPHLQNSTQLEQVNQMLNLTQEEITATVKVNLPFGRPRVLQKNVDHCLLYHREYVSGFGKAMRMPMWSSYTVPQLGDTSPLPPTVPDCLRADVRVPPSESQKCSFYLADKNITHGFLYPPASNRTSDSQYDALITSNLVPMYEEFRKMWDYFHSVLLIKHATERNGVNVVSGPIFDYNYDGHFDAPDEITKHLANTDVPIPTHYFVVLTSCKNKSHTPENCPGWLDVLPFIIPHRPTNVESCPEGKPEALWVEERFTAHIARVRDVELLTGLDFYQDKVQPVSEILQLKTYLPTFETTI

T2 sequence (P07766 23-207 limits assumed): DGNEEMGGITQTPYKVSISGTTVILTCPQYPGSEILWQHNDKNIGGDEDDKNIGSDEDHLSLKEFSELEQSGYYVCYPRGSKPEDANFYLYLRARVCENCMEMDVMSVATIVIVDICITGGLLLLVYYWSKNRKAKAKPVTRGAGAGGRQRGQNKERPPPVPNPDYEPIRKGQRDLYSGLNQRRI

binding result [1]: no binding (tested: 100 nM)
EC50 [2]: 177 nM
T-cell activation EC50; HepG2-KO cyno ENPP3-OE; human T cells; E:T 3:1 [3]: 0.023 nM
T-cell activation (CD25) EC50; A704; T-cell donor 110040278; E:T 3:1 [4]: 0.008 nM
T-cell activation (CD25) EC50; A704; T-cell donor 110042496; E:T 3:1 [4]: 0.017 nM
T-cell activation (CD25) EC50; A704; T-cell donor 110042593; E:T 3:1 [4]: 0.013 nM
T-cell activation (CD25) EC50; A704; T-cell donor 110044049; E:T 3:1 [4]: 0.008 nM
T-cell activation (CD25) EC50; A704; T-cell donor 110048457; E:T 3:1 [4]: 0.01 nM
T-cell activation (CD25) EC50; A704; T-cell donor 888668965; E:T 3:1 [4]: 0.008 nM
T-cell activation (CD25) EC50; VMRCRCW; T-cell donor 110040278; E:T 3:1 [4]: 0.007 nM
T-cell activation (CD25) EC50; VMRCRCW; T-cell donor 110042496; E:T 3:1 [4]: 0.015 nM
T-cell activation (CD25) EC50; VMRCRCW; T-cell donor 110042593; E:T 3:1 [4]: 0.017 nM
T-cell activation (CD25) EC50; VMRCRCW; T-cell donor 110044049; E:T 3:1 [4]: 0.009 nM
T-cell activation (CD25) EC50; VMRCRCW; T-cell donor 110048457; E:T 3:1 [4]: 0.009 nM
T-cell activation (CD25) EC50; VMRCRCW; T-cell donor 888668965; E:T 3:1 [4]: 0.016 nM
B1: NPP3B815 (bispecific antibody, human IgG1, kappa, L234A L235A)
heavy 1: EIVLTQSPATLSASPGERVTLSCSASSSVSYMNWYQQKPGCAPRRWIYDSSKLASGVPARFSGSGSGRDYTLTISSLEPEDFAVYYCQQWSRNPPTFGGGTKVEIKGGGSGGSGGCPPCGGSGGQVQLVQSGAEVKKPGSSVKVSCKASGYTFTRSTMHWVKQAPGQGLEWIGYINPSSAYTNYNQKFQGRVTLTADKSTSTAYMELSSLRSEDTAVYYCASPQVHYDYAGFPYWGCGTLVTVSSEPKSSDKTHTCPPCPAPEAAGGPSVFLFPPKPKDTLMISRTPEVTCVVVSVSHEDPEVKFNWYVDGVEVHNAKTKPREEQYNSTYRVVSVLTVLHQDWLNGKEYKCKVSNKALPAPIEKTISKAKGQPREPQVYTLPPSREEMTKNQVSLWCLVKGFYPSDIAVEWESNGQPENNYKTTPPVLDSDGSFFLYSKLTVDKSRWQQGNVFSCSVMHEALHNHYTQKSLSLSPGK
heavy 2: EVQLVESGGGRVKPGGSLRLSCAASGFTFSDYSMNWVRQAPGKGLEWVSSISSISSYVKYADSVKGRFTMSRDNAKNSLFLQMNSLRDEDMAVYYCARGHYFDYWGQGTLVTVSSASTKGPSVFPLAPSSKSTSGGTAALGCLVKDYFPEPVTVSWNSGALTSGVHTFPAVLQSSGLYSLSSVVTVPSSSLGTQTYICNVNHKPSNTKVDKKVEPKSCDKTHTCPPCPAPEAAGGPSVFLFPPKPKDTLMISRTPEVTCVVVSVSHEDPEVKFNWYVDGVEVHNAKTKPREEQYNSTYRVVSVLTVLHQDWLNGKEYKCKVSNKALPAPIEKTISKAKGQPREPQVYTLPPSREEMTKNQVSLSCAVKGFYPSDIAVEWESNGQPENNYKTTPPVLDSDGSFFLVSKLTVDKSRWQQGNVFSCSVMHEALHNRFTQKSLSLSPGK
light: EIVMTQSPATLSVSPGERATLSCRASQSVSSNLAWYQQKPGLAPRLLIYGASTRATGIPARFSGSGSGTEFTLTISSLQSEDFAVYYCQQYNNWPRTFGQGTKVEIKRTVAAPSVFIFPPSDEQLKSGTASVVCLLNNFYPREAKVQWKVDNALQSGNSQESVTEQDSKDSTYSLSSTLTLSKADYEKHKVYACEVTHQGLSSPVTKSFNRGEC
notes: HC2 carries the NPP3B56 Fab and the hole T366S, L368A, Y407V; Fc with L234A, L235A, D265S; The CPPC linker cysteines form disulfides with engineered Cys at L42 and H105 (Chothia); also called NPP3B56×CD3B2030-N106A; ENPP3×CD3 (NPP3B815)
Cytotox. EC50; HepG2-KO cyno ENPP3-OE; human T cells; E:T 3:1 [3]: 0.079 nM
